Experiment: label from the status in PepcDB records

Sequence	protein production
MELSSSESLGFSKILKERVKVKPMNKYAILAVLLWSTVASAFKLTLSRLDTISMLFYSSLTSTVIFLLANLKDIKTFSIKANLNSVFFGFINPFLYYLVLFSAYSILPAQEAQALNYTWPIILVIFSSAFLGQRLSERDFLGVIIGFLGALVVGTRGNLSSLHFANPMGDLLALCSAIIWAIYWILNLRDPRKAEVKMMWNFIFGFLYISILGVIEGIKFDPYGVLGAIYVGTFEMGLTFLLWLKALESEEAGKVASLIYLTPVLSLLFISIVVGEKILGSTIVGLALILLGIALSRR	failed
MANCFAPQLTFPSFSPRHFSPRMSHQSPKPSTSTTTSIFTSATKLLWGPSLPPGLLISTARTAWTTVWQLMMTQLAPSDSSGSYTRPTSKFRLDPTQFTSAASSELHLYVGLPCPWAHRTLIVRALKGLNDAVPVSIASPGQDGSWEFKNNNIPIKDKDKLIPSLDKANRCRNLKEVYKSRSGGYDGRCTVPMLWDLRKKDVVCNESYDIIEFFNSGLNKLARNDNLDLSPPELKEMIQGWNQIVYPKVNNGVYRCGFAQSQEAYDGAVNELFSTLDEIEDHLGSNRYLCGERLTLADVCLFTTLIRFDSVYNILFKCTKKKLVEYPNLYGYLREIYQIPGVAATCDISAIMDGYYKTLFPLNASGIQPAISSSGDQDSLWRPHNRDLVGKAIEAQLSV	failed
MSWLFSTLVFFLTLLTAGIALYLITARRYQSSNSVANSYDQWTEDGILEFYWGEHIHLGHYGSPPQRKDFLVAKSDFVHEMVRWGGLDKLPPGTTLLDVGCGIGGSSRILARDYGFAVTGITISPQQVQRAQELTPQELNAQFLVDDAMALSFPDNSFDVVWSIEAGPHMPDKAIFAKELMRVLKPGGIMVLADWNQRDDRQKPLNFWEKPVMQQLLDQWSHPAFSSIEGFSELLAATGLVEGEVITADWTKQTLPSWLDSIWQGIVRPEGLVRFGLSGFIKSLREVPTLLLMRLAFGTGLCRFGMFRALRADTVRSSAEQTSAIKVAQK	failed
MSDFNKYCEEAAREALPDSEDEEDIGDEDTCSAQDLAAEFQLKYKPQDEVSVSLQREYVLSLAADQGFSRMAAGLSNSAVHIYNLDSGAGKLENFSYLPPTDSPQSVSICGVRFLDEGPHNILVGTTDGYVRLYDLRLRGEQARFKYTQHPNVPPVPKSLSCFDRNANGRIICCGTEQFHSNAFLVFFDVRERQQMGVYFESHEDDITSLRFHAQNPDLLATGSVDGLVNVFDVKEPDEDEALLNTFNTESSVARLAWHRNVYDKDIISCVTTTGDFKSYECEEGDEVASFERPDVTAAIRRKKAANFNLINAHNQEDGGVFLLAGTNFNKGEILRSVSVTSKNSLQPLANFQGNKQIVRDSLFDSKRSLLFTGGESGIVTVWAQDASGTAFSSEKLKARKEKKSRKQAPY	failed
MCIGMDIRDFFAQSAGRWFSQRTSHHLAFKQTESGKSQLTIELLSVDDPAVIALCQQYDMDPAWAVCGARVSWDGTMEWDNEKHEGSTVLVPIMDQGSRMEGKLLREMGYAEKAPVAGRFSMGSDGALTLITEYETIYSEERLWFASPNLRLRTSILKRFGGFSMASFCSEIRLGVTQPANSLEHHHHHH	not failed
KSTVEKSTVGQKVAIVREDTGTIAELAEKALGNMVDIVYAGSDLKEAEEAVKKEKAPAIIVIPKGFSQSLESGEKARLEIVWYLRGTGLSEAVSTGTISSLIESLKVQLASFLLNDPKKAQLLFDPLEIVQHTYLRGSLFKNHSPEAIMNVFYSQN	not failed
SLYGNSSGGTLLTTTKEGQGKDSVELNYSGGSHDKNRTGLILQGGAKQSNQPSYVISSSYFDTDGYREHSAAHKILNNAKLTWNLDDGSKINWITNYVKINADDPQGLTRDQWKANPKQQVPFLQQFDVRKDIEQTQTGVTWSKPINDQNELYMMGYLGNRKVTQYQSIPKSTQDASKNQAGGVIDFERNYYGADLRWTGKELLPNTTFSVGVALDAMDEDRKGYENYVTVNNQPSYGVKGNLRRDEDNTLWNIDPYLQASWQFLPTWRLDTGVRYSNVHYKSDDHFIVIGNTAKDSNPDDSGKTDYSKVLPSAALSWQIVPELLAYVSYAKGFETPTFTEMAYNPDPDLSGFNFGLKASTSDTYEAGLKSQNRLGDFTLAAFQTKTKDDIVSAGSINGRATFRNADRTLREGIEFTWNKQLWRDLVLNTSYAYLNATFDADVPATASVAAITSGNQIPGVAKNQAYASLAWKPQTGFHGGIDAQYNDKIYVDDKNSDAAPSYTVVAAYAGYTWQMQDWKLNVYSRVDNMFDKSYVGSVIVNDGNSRFFEPADGRNWSAGLRVSKQF	failed
MIDRPLEGKVAFITGAARGLGRAHAVRLAADGANIIAVDICEQIASVPYPLSTADDLAATVELVEDAGGGIVARQGDVRDRASLSVALQAGLDEFGRLDIVVANAGIAMMQAGDDGWRDVIDVNLTGVFHTVQVAIPTLIEQGTGGSIVLISSAAGLVGIGSSDPGSLGYAAAKHGVVGLMRAYANHLAPQNIRVNSVHPCGVDTPMINNEFFQQWLTTADMDAPHNLGNALPVELVQPTDIANAVAWLASEEARYVTGVTLPVDAGFVNKR	not failed
PETYGRLVEPTTLKIERLLPGPIERVWAYLTQSDLRRRWLASGEMRLAPDAPFELVWRNDELSDPPGHRPEGFSEEEKMASRIITVVPPHHLVFSWGESGEVSIELQALGKDVLLTLIHRRLVGRKTKLDVSAGWHVHLDILAARLQEKEPAPFWDTWLALKEEYEPR	failed
MGTIGKKAAKGASVKFSESSTQAVIKATYLQVFGRDVYEGQRLKVQEIKLENGEISVRDFVRALAKSDLFRKLYWTPFYVCKAIEYIHRRLLGRPTYGRQENNKYFDIASKKGLYAVVDAILDSLEYTETFGEDTVPYERYLTPAGLEHHHHHH	not failed
MQTTAAAQERYTRTAIFLHWCMTAMIVGLIGLGFYMGQQPPSPEKYALYELHKSLGVVTVLLLFARFIWRAANPPPELPTAYSQLLRTASHLGHFALYVLMFAVPVSGWVMSAAYGRPASLFGVPIPPPVTKSEDLAELWGTIHFALGSALALVIAGHTLFALKHHFIDKDGLLWRMWVRCP	failed
MSQTPSLAQLQPADAFLRRHLGPDPAEQQAMLAFLGVSTRAELIVQTVPPAIRLNRPLELPAALDEQAALARLRGYAGLNQRWTSLIGMGYYGTVTPSVILRNVLENPGWYTAYTPYQPEIAQGRLEALLNFQQLTIDLTGLDLASASLLDEATAAAEAMALARRVAKARSNRFFVDAHCHPQTVSVLRTRAEAFGFELVVDEPDNLAAHAVFGALLQYPDSRGEIRDLRPLIEALHGQQALACVASDLLALLLLTPPGELGADVVLGSAQRFGVPMGYGGPHAAFFATREGYKRAMPGRIIGVSRDARGNPALRMALQTREQHIRREKANSNICTAQVLLANIASLYAVYHGPQELKRIAQRVQRLTALLAAGLKSKGLRRLNRHFFDTLTYEVGERQAAILERARAARVNLRVVDDRRLALSLDETCDAATLATLFEIFLGAGHGLDVAHLDGGAVADGIPAVLQRTSAYLQHPVFNAHHSETEMLRYLRQLEGKDLALNQAMIPLGSCTMKLNASSEMIPITWPEFAELHPFVPREQAEGYRRMIDELEAWLRAITGFDAICMQPNSGAQGEYAGLLAIRRYHQSRGDSQRDICLIPASAHGTNPASAIMASMRVVIVECDPRGNVDLDDLRLKAAEAGDRLSCLMITYPSTHGVYEEGIGEICEVVHRHGGQVYMDGANLNAQVGLARPADIGADVSHMNLHKTFCIPHGGGGPGMGPIGVKRHLAPFVANHPVIRVEGPNPLNDAVSATPWGSASILPISWMYIAMMGPQLADASEVAILSANYLANRLDGAFPVLYRGRNERVAHECILDLRPLKAQTGITEEDVAKRLMDYGFHAPTMSFPVPGTLMVEPTESESKAELDRFVEAMLSIRAEIGKVESGAWPAEDNPLKRAPHTLADVTGIWQRPYEIAEAVTPSEHARAFKYWPAVNRVDNVYGDRNLFCACVPLDDYR	failed
MVGNVRHYLFYANSSELQQQMMNRKSHFNLSQTTQEWLIGKGYNPEDLEQPGENGDSALMKATREGVDAVVKELIDLGVDINARNNDNNNALWFACFGNHYDLIHLLLAAKINIDNQNDNGATVLMYAASAGKTEVVKLLLQYHPNLYLRNLDDFQAIDFASNVEVLRLLKNATK	failed
MEKTIIAALLMLISLISYAQGLMWTAKAELNMSSMSNVEESKMHPGFYAGIGAGYVIDETRSVRPSLLFTMKGVKQDYKF	failed
MISAHCNLRLLCSSDSSASASQVAGTTEVVENLVTNDNSPNIPEAIDRLFSDIANINRESMAEIADIQIEEMAVNLWNWALTIGGGWLVNEEQKIRLHYVACKLLSMCEASFASEQSIQRLIMMNMRIGKEWLDAGNFLIADECFQAAVASLEQLYVKLIQRSSPEADLTMEKITVESDHFRVLSYQAESAVAQGDFQRASMCVLQCKDMLMRLPQMTSSLHHLCYNFGVETQKNNKYEESSFWLSQSYDIGKMDKKSTGPEMLAKVLRLLATNYLDWDDTKYYDKALNAVNLANKEHLSSPGLFLKMKILLKGETSNEELLEAVMEILHLDMPLDFCLNIAKLLMDHERESVGFHFLTIIHERFKSSENIGKVLILHTDMLLQRKEELLAKEKIEEIFLAHQTGRQLTAESMNWLHNILWRQAASSFEVQNYTDALQWYYYSLRFYSTDEMDLDFTKLQRNMACCYLNLQQLDKAKEAVAEAERHDPRNVFTQFYIFKIAVIEGNSERALQAIITLENILTDEESEDNDLVAERGSPTMLLSLAAQFALENGQQIVAEKALEYLAQHSEDQEQVLTAVKCLLRFLLPKIAEMPESEDKKKEMDRLLTCLNRAFVKLSQPFGEEALSLESRANEAQWFRKTAWNLAVQCDKDPVMMREFFILSYKMSQFCPSDQVILIARKTCLLMAVAVDLEQGRKASTAFEQTMFLSRALEEIQTCNDIHNFLKQTGTFSNDSCEKLLLLYEFEVRAKLNDPLLESFLESVWELPHLETKTFETIAIIAMEKPAHYPLIALKALKKALLLYKKEEPIDISQYSKCMHNLVNLSVPDGASNVELCPLEEVWGYFEDALSHISRTKDYPEMEILWLMVKSWNTGVLMFSRSKYASAEKWCGLALRFLNHLTSFKESYETQMNMLYSQLVEALSNNKGPVFHEHGYWSKSD	failed
MRIAAALLAIALTGLSGAVWAETSAAIVARKPDLFHPETGLRIDRQRAPVPEDIPPPARKISALWARKLIARGALALDVYGAAQSRYDELDGTWLVPEPRQSLPGAVWLPEVGRGVLDAALQVYLERELERLTGGSKARAIVVFCVADCWMSWNAAQRIAGMGYLQVYWFPLGTDGWRELGWPLEPVEPVPVPVD	failed
MINARGETMARFTVVIPYYQKQHGVLGRALASVFAQTYQDFDLVIVDDESPYPIDQELAEISQEQKDRIVVIKQANAGPGGARNTGLDHVPDGTDYVAFLDSDDMWTPDHLRNAAFALNTYGGECYWASMQASDEFYYHFAISELEKNEGAARLSEKPLVIELPDLASVMLRNWSFLHLSCMVIGRPLFEKIRFDPALRLAAEDVLFFCDSILASKRTLLCDDAGAMRGMGVNIFHSIDNTSPEFLRQQFNTWVALDTLEGRFSRRPADVASIASYKNTARKQALWSQAGNLKRRRAPQFGLLFKWAMRDPALLRAAFELGAGKIVRSRLEHHHHHH	failed
SLKRKLKPKRLQLPPQDVVFEGEAAMNEYTFYRNWVESWLQHIRSYYLLFIDGDPSLSKFFEIEICAHSWKRSTFDQQVFKFGLLWECVDIARSRTVYWQCALGTGHIQEDKVSEATSPFTDDSCTNSCLSRMTGQ	failed
